Source: patent US20260158064A1 (NANJING PROBIO BIOTECH, published 2026)
Blank lines part the entries; values can stand above or below the molecule they belong to.

Experiments:
[1] = biological target: human ROR1 Kringle-His domain protein (amino acid sequence at positions 308-395, Acrobiosystems, RO1-H5223) (human) (UniProt Q01973); test: indirect ELISA, antigen coated at 1 ug/ml
[2] = biological target: human ROR1-His protein (fused with a His protein tag, Acrobiosystems, RO1-H522y) (human) (UniProt Q01973); test: indirect ELISA, antigen coated at 1 ug/ml
Sequence of human ROR1-His protein (fused with a His protein tag, Acrobiosystems, RO1-H522y) (human) (Q01973 30-403 limits assumed): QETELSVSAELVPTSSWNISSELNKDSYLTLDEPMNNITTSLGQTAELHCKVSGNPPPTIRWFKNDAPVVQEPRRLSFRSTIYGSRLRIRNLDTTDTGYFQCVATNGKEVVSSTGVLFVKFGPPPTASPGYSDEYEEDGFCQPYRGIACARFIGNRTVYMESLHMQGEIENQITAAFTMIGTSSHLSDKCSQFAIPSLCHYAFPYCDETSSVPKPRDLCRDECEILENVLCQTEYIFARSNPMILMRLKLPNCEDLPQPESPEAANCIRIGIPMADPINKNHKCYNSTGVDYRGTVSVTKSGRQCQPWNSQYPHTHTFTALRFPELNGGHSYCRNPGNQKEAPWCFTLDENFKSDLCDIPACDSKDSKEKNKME

[3] = biological target: human ROR1 expressed on the engineered cell line CHO-K1/ROR1 (human) (UniProt Q01973); test: flow cytometry of CHO-K1_ROR1 cells stained with the PE-labelled antibody; the ROR1- gate prints 0.75
[4] = biological target: human ROR1 expressed on the engineered cell line CHO-K1/ROR1 (human) (UniProt Q01973); test: flow cytometry of CHO-K1_ROR1 cells stained with the PE-labelled antibody; the CHO-K1 row of the same box prints 20.8
[5] = biological target: human ROR1 expressed on CHO cells (CHO-K1/Human ROR1 stable cells) (human) (UniProt Q01973); test: flow cytometry, 10 ug/ml on Human ROR1-CHO-K1 cells (curve 1), fluorescent secondary antibody
Sequence of human ROR1 expressed on CHO cells (CHO-K1/Human ROR1 stable cells) (human) (Q01973 30-937): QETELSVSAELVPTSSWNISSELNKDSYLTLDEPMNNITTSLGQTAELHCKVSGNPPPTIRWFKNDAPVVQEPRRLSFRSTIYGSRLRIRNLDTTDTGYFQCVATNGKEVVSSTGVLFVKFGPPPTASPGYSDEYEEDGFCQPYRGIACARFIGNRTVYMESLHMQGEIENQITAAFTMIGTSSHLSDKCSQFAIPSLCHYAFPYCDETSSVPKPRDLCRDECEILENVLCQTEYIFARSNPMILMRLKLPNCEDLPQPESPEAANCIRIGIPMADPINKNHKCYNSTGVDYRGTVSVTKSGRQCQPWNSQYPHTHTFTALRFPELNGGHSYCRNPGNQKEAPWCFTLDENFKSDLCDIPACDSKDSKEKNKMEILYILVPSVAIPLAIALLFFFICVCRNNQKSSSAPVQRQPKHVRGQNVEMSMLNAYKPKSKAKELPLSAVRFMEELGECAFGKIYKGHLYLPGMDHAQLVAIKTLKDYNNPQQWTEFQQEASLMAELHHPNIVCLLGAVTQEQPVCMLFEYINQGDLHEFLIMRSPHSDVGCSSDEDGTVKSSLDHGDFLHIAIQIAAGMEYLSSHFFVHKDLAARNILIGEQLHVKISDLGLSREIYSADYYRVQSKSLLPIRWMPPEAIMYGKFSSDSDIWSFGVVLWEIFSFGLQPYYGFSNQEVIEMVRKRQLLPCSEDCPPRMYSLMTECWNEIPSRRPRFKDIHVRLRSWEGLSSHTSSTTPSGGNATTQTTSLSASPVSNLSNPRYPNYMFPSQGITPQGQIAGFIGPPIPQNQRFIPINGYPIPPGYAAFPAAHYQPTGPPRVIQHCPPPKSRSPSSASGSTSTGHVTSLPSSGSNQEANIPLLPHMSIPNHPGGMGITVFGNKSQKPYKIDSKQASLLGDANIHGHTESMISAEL

[6] = biological target: mouse ROR1 expressed on CHO cells (CHO-K1/Mouse ROR1 stable cells) (mouse) (UniProt Q9Z139); test: flow cytometry, 10 ug/ml on Mouse ROR1-CHO-K1 cells (curve 2), fluorescent secondary antibody
Sequence of mouse ROR1 expressed on CHO cells (CHO-K1/Mouse ROR1 stable cells) (mouse) (Q9Z139 30-937): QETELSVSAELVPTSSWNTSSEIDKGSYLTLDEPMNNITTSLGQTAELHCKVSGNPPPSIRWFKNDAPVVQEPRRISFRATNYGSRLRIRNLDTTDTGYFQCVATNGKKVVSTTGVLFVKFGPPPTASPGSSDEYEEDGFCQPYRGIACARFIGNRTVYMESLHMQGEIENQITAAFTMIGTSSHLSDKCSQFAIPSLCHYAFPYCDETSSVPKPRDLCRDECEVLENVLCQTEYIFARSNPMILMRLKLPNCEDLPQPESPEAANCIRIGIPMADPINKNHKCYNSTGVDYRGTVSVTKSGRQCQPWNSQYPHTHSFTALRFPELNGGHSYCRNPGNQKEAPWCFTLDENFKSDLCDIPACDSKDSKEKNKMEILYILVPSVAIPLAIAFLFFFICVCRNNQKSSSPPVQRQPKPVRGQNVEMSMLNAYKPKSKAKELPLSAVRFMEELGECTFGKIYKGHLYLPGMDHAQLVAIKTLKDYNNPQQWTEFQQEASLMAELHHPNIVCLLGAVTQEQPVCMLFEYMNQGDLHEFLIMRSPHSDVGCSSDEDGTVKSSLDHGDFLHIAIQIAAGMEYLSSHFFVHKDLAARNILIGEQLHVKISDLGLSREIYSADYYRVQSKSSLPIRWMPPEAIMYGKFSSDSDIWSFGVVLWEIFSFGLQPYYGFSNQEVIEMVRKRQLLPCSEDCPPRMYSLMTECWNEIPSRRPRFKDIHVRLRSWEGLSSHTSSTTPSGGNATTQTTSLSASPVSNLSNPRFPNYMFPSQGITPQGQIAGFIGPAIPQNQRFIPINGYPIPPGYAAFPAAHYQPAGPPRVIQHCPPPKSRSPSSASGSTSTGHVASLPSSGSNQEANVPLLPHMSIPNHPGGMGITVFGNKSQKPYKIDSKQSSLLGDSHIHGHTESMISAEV

[7] = biological target: human ROR1 expressed on CHO cells (CHO-K1/Human ROR1 stable cells) (human) (UniProt Q01973); test: flow cytometry, 10 ug/ml on Human ROR1-CHO-K1 cells (curve 1), fluorescent secondary antibody; remark: listed apart in the source
[8] = biological target: mouse ROR1 expressed on CHO cells (CHO-K1/Mouse ROR1 stable cells) (mouse) (UniProt Q9Z139); test: flow cytometry, 10 ug/ml on Mouse ROR1-CHO-K1 cells (curve 2), fluorescent secondary antibody; remark: listed apart in the source
[9] = biological target: human ROR1 expressed on CHO cells (CHO-K1/Human ROR1 stable cells) (human) (UniProt Q01973); test: flow cytometry, 10 ug/ml antibody on Human ROR1-CHO-K1 cells (curve 1), fluorescent secondary antibody
[10] = biological target: mouse ROR1 expressed on CHO cells (CHO-K1/Mouse ROR1 stable cells) (mouse) (UniProt Q9Z139); test: flow cytometry, 10 ug/ml antibody on Mouse ROR1-CHO-K1 cells (curve 2), fluorescent secondary antibody
[11] = biological target: T1, human ROR1-His protein (fused with a His protein tag, Acrobiosystems, RO1-H522y) (human, UniProt Q01973 30-403); test: indirect ELISA, antigen coated at 1 ug/ml
T1 construct: also called recombinant human ROR1-His protein; not shown: His tag
T1 sequence (Q01973 30-403 limits assumed): as the sequence (Q01973 30-403 limits assumed) above
Protocol: (§1) Indirect ELISA was used to assess the binding capability of the above purified antibodies to human ROR1-related recombinant proteins. ELISA plates (Nunc) were coated with 1 μg/ml of human ROR1-His protein, human ROR1 Frizzled-His domain protein, and human ROR1 Kringle-His domain protein in 100 μl/well of CBS overnight at 4° C. The plates were washed with PBS-T (0.05% Tween) and blocked with 300 μl/well of PBS containing 3% skim milk at 37° C. for 1 hour. Subsequently, the blocking solution was discarded, and 100 μl of purified antibody at 8 μg/ml (about 100 nM) was added to the first well and diluted according to a 3-fold gradient to obtain a total of 11 test concentration gradients. The plates were then incubated for 1 hour at room temperature. The plates were washed 3 times with PBST and incubated with 100 μl/well of horseradish peroxidase-conjugated mouse anti-human IgG Fc fragment (GenScript) for 0.5 hours at 37° C. The plates were washed five times with PBST, a TMB chromogenic solution (GenScript) was then added, and the plates were incubated for 15 minutes at room temperature in the dark. The reaction was stopped by adding 50 μl of 1 M HCl stop solution (Sigma). The plates were read at 450 nm using a microplate reader. FIGS. 1-3 show the results of the ELISA experiment on the binding of 8 positive recombinant antibody clones to ROR1-related antigen proteins, and the EC₅₀ for each antibody is as shown in Table 2 below: the antigen binding capacity of the antibodies tested was all equal to or higher than that of the positive reference antibody R11-scFv.

[12] = biological target: T2, human ROR1 Kringle-His domain protein (amino acid sequence at positions 308-395, Acrobiosystems, RO1-H5223) (human, UniProt Q01973 308-395); test: indirect ELISA, antigen coated at 1 ug/ml
T2 construct: also called Human ROR1 Kringle-His protein; recombinant human ROR1 Kringle-His protein; not shown: His tag
T2 sequence (Q01973 308-395 limits assumed, form in doubt): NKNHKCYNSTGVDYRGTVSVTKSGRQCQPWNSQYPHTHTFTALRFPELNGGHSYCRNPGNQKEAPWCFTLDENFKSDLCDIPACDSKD
Protocol: as §1

[13] = biological target: T3, mouse ROR1 expressed on CHO cells (CHO-K1/Mouse ROR1 stable cells) (mouse, UniProt Q9Z139 30-937); test: flow cytometry, antibody at 10 ug/ml on CHO cells
T3 construct: whole, on cells
T3 sequence (Q9Z139 30-937): as the sequence (Q9Z139 30-937) above
Protocol: CHO cells expressing human and mouse ROR1 and parental cells as the negative control for detection were collected and washed 3 times with PBS. 2.5×10⁵ test cells and 100 μl of purified antibody at 10 μg/ml were added to a 96-well plate, and the plate was incubated at 4° C. for 1 hour. The cells were then washed 3 times with PBS, 100 μl of iFluor-labeled goat anti-human IgG, an Fcγ-specific fragment antibody, was added, and the plate was incubated at 4° C. for 45 minutes. Finally, the cells were washed 3 times with PBS, and the signals were read using FACS BD Calibur.

[14] = biological target: human ROR1 Frizzled-His domain protein (amino acid sequence at positions 165-305, Acrobiosystems, RO1-H5222) (human) (UniProt Q01973); test: indirect ELISA, plate coated with human ROR1 Frizzled-His, HRP anti-human IgG Fc, OD450
Sequence of human ROR1 Frizzled-His domain protein (amino acid sequence at positions 165-305, Acrobiosystems, RO1-H5222) (human) (Q01973 165-305 limits assumed, form in doubt): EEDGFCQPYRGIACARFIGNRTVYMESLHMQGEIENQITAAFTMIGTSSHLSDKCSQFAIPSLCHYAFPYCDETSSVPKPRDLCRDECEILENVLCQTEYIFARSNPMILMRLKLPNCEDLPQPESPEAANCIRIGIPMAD

Sequence of human ROR1 Kringle-His domain protein (amino acid sequence at positions 308-395, Acrobiosystems, RO1-H5223) (human) (Q01973 308-395 limits assumed, form in doubt): as the sequence (Q01973 308-395 limits assumed, form in doubt) above

EC50 [1]: 1.17 µg/mL | EC50 [2]: 0.104 µg/mL
Molecule: Positive reference antibody R11-scFv

ROR1+ gate, percent of cells [3]: 99.2 | Median : PE-H [4]: 13100
Molecule: PE anti-human ROR1 Antibody (BioLegend, Cat #357804)

Geometric Mean : Alexa Fluor 647-H [5]: 137 | Geometric Mean : Alexa Fluor 647-H [6]: 93.3 | Geometric Mean : Alexa Fluor 647-H [7]: 286 | Geometric Mean : Alexa Fluor 647-H [8]: 135
Molecule: Human IgG (antibody)

Geometric Mean : Alexa Fluor 647-H [9]: 69000 | Geometric Mean : Alexa Fluor 647-H [10]: 32600
Molecule: Positive Ab- Cirmtuzumab (antibody)

EC50 [11]: 0.0407 µg/mL | EC50 [12]: 0.0294 µg/mL | binding result [13]: binds
B1: single domain antibody AHP15580 (Fc fusion)
chain: QVQLVESGGGVVQPGGSLRLSCAASGFVLRVNTVSWYRQAPGKQRELVALITSESNEYYDDSVKGRFTISRDNAKNTIYLHMNSLKPEDTGVYFCNFITTWGQGTQVTVSS
notes: VHH expressed from pcDNA3.4-Fc (HuIgG1); not shown: human IgG1 Fc of the pcDNA3.4-Fc (HuIgG1) expression vector

EC50 [12]: 1.91 µg/mL
B2: single domain antibody AHP16026 (Fc fusion)
chain: QVQLVESGGGLVQPGGSLRLSCAVLGSIEQINDINYYRWYRQPPGKQRDLVASINNSGELIYADSVKGRFFISRDKYTVYLEMRSLKAEDTAVYYCNAQDRGEYWGRGTQVTVSS
notes: as for B1

EC50 [11]: 0.0203 µg/mL | binding result [13]: binds | EC50 (read off the curve) [14]: 0.1 µg/mL
B3: single domain antibody AHP15768 (Fc fusion)
chain: QVQLVESGGGSVQAGGSLRLSCAVSGRSISLYNMGWFRQAPGKEREFVSAINWSGGRTYYADSVKGRFTISRNNAKNTMYLQMNSLKPEDTATYYCAVDVEGWFRVSGDAAGYDYWGQGTQVTVSS
notes: as for B1
